Assay results: PMC3616908
Blank lines part the entries; values can stand above or below the substance they belong to.

Target: Chk1 (UniProt P38147)
Test: biotinylated 35-mer peptide pull-down, anti-FLAG blot

binding against the reference (reference: unphosphorylated peptide, sites T143): stronger
Substance: Rad9 (from UniProt P14737) T143p peptide

binding against the reference (reference: T125p peptide, sites T143): stronger
binding against the reference (reference: T143p peptide, sites T125): weaker
binding against the reference (reference: unphosphorylated peptide, sites T125,T143): stronger
Substance: Rad9 (from UniProt P14737) T125pT143p peptide

binding against the reference (reference: unphosphorylated peptide, sites T125): weaker
Substance: Rad9 (from UniProt P14737) T125p peptide

binding against the reference (reference: T143p peptide, untreated or λ phosphatase plus inhibitors, sites T143): weaker
Substance: Rad9 (from UniProt P14737) T143p peptide, λ phosphatase treated
